From publication PMC4046112, “eIF2B is a decameric guanine nucleotide exchange factor with a γ2ε2 tetrameric core” (Nature Communications, 2014)

T1: eIF2Bε (ε-subunit of yeast eIF2B, untagged) (S. cerevisiae, UniProt P32501 1-712)
T1 construct: eIF2B epsilon subunit (GCD6), S. cerevisiae; Subunit of the purified eIF2B complexes, written alone for the subunit pairs; also called eIF2B ε-subunit; ε/GCD6
T1 sequence (looked up): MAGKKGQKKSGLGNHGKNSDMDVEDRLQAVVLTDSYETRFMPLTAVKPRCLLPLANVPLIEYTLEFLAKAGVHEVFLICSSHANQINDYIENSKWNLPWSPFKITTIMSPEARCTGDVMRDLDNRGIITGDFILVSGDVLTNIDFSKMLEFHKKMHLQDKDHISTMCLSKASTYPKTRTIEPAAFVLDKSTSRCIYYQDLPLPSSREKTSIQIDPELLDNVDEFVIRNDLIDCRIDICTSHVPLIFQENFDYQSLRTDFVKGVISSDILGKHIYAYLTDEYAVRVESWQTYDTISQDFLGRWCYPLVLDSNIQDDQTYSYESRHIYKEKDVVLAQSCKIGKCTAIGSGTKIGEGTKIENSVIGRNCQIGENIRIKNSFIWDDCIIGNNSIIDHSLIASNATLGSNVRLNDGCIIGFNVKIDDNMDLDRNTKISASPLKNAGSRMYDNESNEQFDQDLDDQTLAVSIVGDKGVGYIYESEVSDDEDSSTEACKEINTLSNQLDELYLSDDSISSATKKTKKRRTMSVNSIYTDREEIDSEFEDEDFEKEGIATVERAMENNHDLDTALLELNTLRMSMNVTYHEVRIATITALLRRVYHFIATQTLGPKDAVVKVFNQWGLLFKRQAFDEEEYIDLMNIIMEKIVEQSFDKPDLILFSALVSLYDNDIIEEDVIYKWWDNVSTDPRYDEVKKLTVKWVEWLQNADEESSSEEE

B1: eIF2Bγ, FLAG-tagged (γ-subunit of yeast eIF2B) (natural protein, S. cerevisiae, UniProt P09032 1-578, looked up)
chain: MSIQAFVFCGKGSNLAPFTQPDFPFQTQNKDSTAATSGDKLNELVNSALDSTVINEFMQHSTRLPKALLPIGNRPMIEYVLDWCDQADFKEISVVAPVDEIELIESGLTSFLSLRKQQFELIYKALSNSNHSHHLQDPKKINFIPSKANSTGESLQKELLPRINGDFVILPCDFVTDIPPQVLVDQFRNRDDNNLAMTIYYKNSLDSSIDKKQQQKQKQQQFFTVYSENEDSERQPILLDVYSQRDVTKTKYLQIRSHLLWNYPNLTVSTKLLNSFIYFCSFELCQLLKLGPQSMSRQASFKDPFTGNQQQQNPPTTDDDEDRNHDDDDDYKPSATSIQPTYFKKKNDLILDPINCNKSLSKVFRDLSRRSWQHSKPREPIGIFILPNETLFIRANNLNAYMDANRFVLKIKSQTMFTKNIQIQSAAIGADAIVDPKCQISAHSNVKMSVLGTQANIGSRCRVAGSLLFPGVHLGDEVILENCIIGPMAKIGSKCKLSNCYIEGHYVVEPKNNFKGETLANVYLDEDEEDELIYDDSVIAGESEIAEETDSDDRSDEDSDDSEYTDEYEYEDDGLFER
notes: eIF2B gamma subunit (GCD1), S. cerevisiae; Bait of all eIF2B complex purifications; also called GCD1-FLAG2-His6; source: S. cerevisiae strains overexpressing eIF2B subunits, purified (anti-FLAG resin, FLAG peptide elution); not shown: FLAG2, C-terminal, kept
B2: eIF2Bδ (δ-subunit of yeast eIF2B) (natural protein, S. cerevisiae, UniProt P12754 1-651, looked up)
chain: MSESEAKSRSATPPSKAKQATPTTTAAANGEKKLTNKELKELKKQEKAAKRAAMKQANGISIEQQQQQAQMKKEKKQLQREQQQKREQKQKNANKKKQNERNVKKSTLFGHLETTEERRATILALTSAVSSPKTSRITAAGLMVPVVASALSGSNVLTASSLMPVGPNASSTVSASAPASTTTTLPASSAALSAGTSSASTNTPTAIQQEIASSNASDVAKTLASISLEAGEFNVIPGISSVIPTVLEQSFDNSSLISSVKELLLNKDLIHPSILLLTSHLAHYKIVGSIPRCIAMLEVFQIVIKDYQTPKGTTLSRNLTSYLSHQIDLLKKARPLSVTMGNAIRWLKQEISLIDPSTPDKAAKKDLCEKIGQFAKEKIELADQLIIDNASTQIEESTTIVTYGSSKVLTELLLHNAISLKKNIKVIVVDSRPLFEGRKMAETLRNAGVNVMYALITSLDTIFNMDVDYVFLGAHSILSNGFLYSRAGTAMLAMSAKRRNIPVLVCCESLKFSQRVQLDSVTFNELADPNDLVNIDYENPVERRGNKGALLNQFIKERKFEKKKLAMENKPKGNKIGGKKGSEGESKDASNEEDSNSKNILDGWQELPSLNIVNILYDLTPPEYIKKVITEFGALPPSSVPVILREYKGSA
notes: eIF2B delta subunit (GCD2), S. cerevisiae; Subunit of the purified eIF2B complexes, written alone for the subunit pairs; also called eIF2B δ-subunit; δ/Gcd2
B3: eIF2γ, His-tagged (γ-subunit of yeast eIF2) (natural protein, S. cerevisiae, UniProt P32481 1-527, looked up)
chain: MSDLQDQEPSIIINGNLEPVGEPDIVEETEVVAQETQETQDADKPKKKVAFTGLEEDGETEEEKRKREFEEGGGLPEQPLNPDFSKLNPLSAEIINRQATINIGTIGHVAHGKSTVVRAISGVQTVRFKDELERNITIKLGYANAKIYKCQEPTCPEPDCYRSFKSDKEISPKCQRPGCPGRYKLVRHVSFVDCPGHDILMSTMLSGAAVMDAALLLIAGNESCPQPQTSEHLAAIEIMKLKHVIILQNKVDLMREESALEHQKSILKFIRGTIADGAPIVPISAQLKYNIDAVNEFIVKTIPVPPRDFMISPRLIVIRSFDVNKPGAEIEDLKGGVAGGSILNGVFKLGDEIEIRPGIVTKDDKGKIQCKPIFSNIVSLFAEQNDLKFAVPGGLIGVGTKVDPTLCRADRLVGQVVGAKGHLPNIYTDIEINYFLLRRLLGVKTDGQKQAKVRKLEPNEVLMVNIGSTATGARVVAVKADMARLQLTSPACTEINEKIALSRRIEKHWRLIGWATIKKGTTLEPIA
notes: eIF2 gamma subunit (GCD11), S. cerevisiae; also called GCD11-His6; source: S. cerevisiae strain GP3511 co-overexpressing all three eIF2 subunits, purified (Ni-chelate, heparin-Sepharose); not shown: His6, C-terminal, kept
B4: eIF2Bβ (β-subunit of yeast eIF2B) (natural protein, S. cerevisiae, UniProt P32502 1-381, looked up)
chain: MSSQAFTSVHPNAATSDVNVTIDTFVAKLKRRQVQGSYAIALETLQLLMRFISAARWNHVNDLIEQIRDLGNSLEKAHPTAFSCGNVIRRILAVLRDEVEEDTMSTTVTSTSVAEPLISSMFNLLQKPEQPHQNRKNSSGSSSMKTKTDYRQVAIQGIKDLIDEIKNIDEGIQQIAIDLIHDHEILLTPTPDSKTVLKFLITARERSNRTFTVLVTEGFPNNTKNAHEFAKKLAQHNIETLVVPDSAVFALMSRVGKVIIGTKAVFVNGGTISSNSGVSSVCECAREFRTPVFAVAGLYKLSPLYPFDVEKFVEFGGSQRILPRMDPRKRLDTVNQITDYVPPENIDIYITNVGGFNPSFIYRIAWDNYKQIDVHLDKNKA
notes: eIF2B beta subunit (GCD7), S. cerevisiae; Subunit of the purified eIF2B complexes, written alone for the subunit pairs; also called eIF2B β-subunit; β/Gcd7

Experiments:
[1] = target: yeast four subunit complex lacking the α-subunit, eIF2Bβδγε (octamer) (S. cerevisiae) (UniProt P32502); assay: native MS; FLAG-purified four-subunit eIF2Bβδγε in ammonium acetate, without and with 10% acetonitrile; octamer = two copies of each of four subunits
[2] = target: yeast FLAG-tagged eIF2B complex (five subunits α–ε; decamer) (S. cerevisiae) (UniProt P14741); assay: native MS; eIF2-eIF2B preparations (purified at low ionic strength, or formed with phosphorylated eIF2 on anti-FLAG resin) exchanged into 500 mM ammonium acetate
[3] = target: yeast FLAG-tagged eIF2B complex (five subunits α–ε; decamer) (S. cerevisiae) (UniProt P14741); assay: native MS; FLAG-purified five-subunit eIF2B in 500 mM ammonium acetate; high collision energy for dissociation; decamer = two copies of each of five subunits
[4] = target: B2; assay: native MS; FLAG-purified four-subunit eIF2Bβδγε in ammonium acetate, without and with 10% acetonitrile; octamer = two copies of each of four subunits; conditions: both partners purified
[5] = target: T1, eIF2Bε (ε-subunit of yeast eIF2B, …); assay: as above; conditions: both partners purified
[6] = target: B1; assay: label-free quantitative proteomics (iBAQ) of the purified complex; eIF2-eIF2B complex purified after phosphorylation of eIF2, trypsin digest, nanoLC-MS/MS, iBAQ intensities compared; eIF2B subunits relative to FLAG-tagged γ (set to 1), eIF2 subunits relative to α; conditions: both partners purified
[7] = target: T1, eIF2Bε (ε-subunit of yeast eIF2B, …); assay: cross-linking; BS3-d0/d4 (1:1) added to purified complexes (eIF2:eIF2B, four-subunit eIF2B, eIF2Bγε core), 30 min at 26 °C, trypsin digest, nanoLC-MS/MS, MassMatrix search; the text does not tell which cross-link came from which complex; conditions: both partners purified
[8] = target: B1; assay: as above; conditions: both partners purified
[9] = target: B2; assay: as above; conditions: both partners purified
[10] = target: eIF2α phosphorylated at Ser51 (subunit of phosphorylated eIF2) (S. cerevisiae) (UniProt P20459); assay: label-free quantitative proteomics (iBAQ) of the purified complex; eIF2-eIF2B complex purified after phosphorylation of eIF2, trypsin digest, nanoLC-MS/MS, iBAQ intensities compared; eIF2B subunits relative to FLAG-tagged γ (set to 1), eIF2 subunits relative to α

Question: Which stoichiometry N [1] does the source give for “yeast four subunit complex lacking the α-subunit, eIF2Bβδγε (octamer), P32502 1-381; P12754 1-651; P09032 1-578; P32501 1-712” here?
Answer: The stoichiometry N was 8.

Question: Which results are given for “yeast FLAG-tagged eIF2B complex (five subunits α–ε; decamer), P14741 1-305; P32502 1-381; P09032 1-578; P12754 1-651; P32501 1-712”?
Answer: stoichiometry N [2]: 10; stoichiometry N [3]: 10

Question: Does B1 bind [4]?
Answer: Result: binds

Question: Does B1 bind [5]?
Answer: Result: binds

Question: How did the “stoichiometry N” value [6] turn out when B2 was run?
Answer: The value was 0.95.

Question: Does B2 bind [7]?
Answer: Result: binds

Question: Does B3 bind [8]?
Answer: Result: binds

Question: Does B3 bind [9]?
Answer: Result: binds

Question: And the stoichiometry N [10]?
Answer: The stoichiometry N was 1.67.

Question: What does the source list for B4?
Answer: stoichiometry N [6]: 1.4; binding result [9]: binds; binding result [7]: binds
